The values that follow come from paper PMC7322011.

The data set in a line: plasma membrane level, fixed-cell imaging. The note with it: glycan lost; control: wild type.

B1: peripheral myelin protein 22 (PMP22): N41Q (protein)
parent chain: MLLLLLSIIVLHVAVLVLLFVSTIVSQWIVGNGHATDLWQNCSTSSSGNVHHCFSSSPNEWLQSVQATMILSIIFSILSLFLFFCQLFTLTKGGRFYITGIFQILAGLCVMSAAAIYTVRHPEWHLNSDYSYGFAYILAWVAFPLALLSGVIYVILRKRE
For B1, the localisation_or_trafficking entry is reported as “increases”.
